Biological target: human octamer-binding transcription factor 4 (OCT4), endogenous in NCCIT and NTERA-2 cells (UniProt Q01860)
UniProt Q01860, sequence (Q01860 whole entry, looked up): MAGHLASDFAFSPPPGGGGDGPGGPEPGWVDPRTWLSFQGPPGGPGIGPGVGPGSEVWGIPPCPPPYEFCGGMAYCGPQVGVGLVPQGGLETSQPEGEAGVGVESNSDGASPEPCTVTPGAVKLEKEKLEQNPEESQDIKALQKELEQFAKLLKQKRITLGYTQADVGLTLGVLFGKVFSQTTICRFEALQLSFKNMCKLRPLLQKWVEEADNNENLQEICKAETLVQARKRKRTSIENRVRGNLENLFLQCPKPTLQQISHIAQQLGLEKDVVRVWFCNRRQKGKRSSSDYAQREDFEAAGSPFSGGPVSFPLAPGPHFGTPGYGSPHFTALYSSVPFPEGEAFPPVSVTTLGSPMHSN

protein phosphatase 1 (PP1), endogenous in NCCIT and NTERA-2 cells
phosphorylated OCT4 after doxycycline-dependent shRNA suppression of PP1 (western blotting and immunofluorescence staining): when the expression of PP1 was suppressed using doxycycline, the phosphorylated OCT4 was increased | phosphorylation of OCT4 after okadaic acid treatment (western blotting and immunofluorescence staining): when PP1 was inhibited, the phosphorylation of OCT4 was increased

— patent publication US20210069289
